Source: the supplement of paper PMC5998384

Experiments:
HeLa Kyoto [1] = experiment: solubility change mitosis vs G1/S (difference of NP-40 vs SDS log2 ratios) (log2 ratio difference); higher = more soluble in mitosis
HeLa Kyoto [2] = experiment: melting temperature (median over replicates), in situ; higher = more thermally stable
HeLa Kyoto [3] = experiment: thermal stability score vs G1/S (z-score of summed log2 fold changes over temperatures); higher = more thermally stable than in G1/S
HeLa Kyoto [4] = experiment: solubility in G1/S (NP-40 vs SDS abundance) (log2 ratio); higher = more soluble; details: cell cycle stage: G1/S
[5] = cell cycle stage: early G1 (4.5 h after nocodazole release)
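For melting temperature (median over replicates), in situ in this document: HeLa Kyoto cells synchronized by double thymidine or nocodazole block, proteins quantified by TMT10plex mass spectrometry, three independent biological replicates.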
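For solubility change mitosis vs G1/S (difference of NP-40 vs SDS log2 ratios) in this document: synchronized HeLa Kyoto cells (double thymidine block for G1/S, nocodazole release for mitosis), protein amounts in NP-40 versus SDS lysates quantified by mass spectrometry, three biological replicates.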
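For solubility in G1/S (NP-40 vs SDS abundance) in this document: HeLa Kyoto cells arrested at G1/S by double thymidine block, proteins quantified by TMT10plex mass spectrometry in mild NP-40 versus SDS extracts, three biological replicates.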
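For thermal stability score vs G1/S (z-score of summed log2 fold changes over temperatures) in this document: synchronized HeLa Kyoto cells, proteins quantified by TMT10plex mass spectrometry, three biological replicates, mitosis taken 0.5 h after nocodazole release, G1/S directly after double thymidine block.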

Substance | solubility change mitosis (log2) (HeLa Kyoto [1]) | melting temperature (HeLa Kyoto [2]; cell cycle stage: G1/S) [°C] | melting temperature (HeLa Kyoto [2]; cell cycle stage: mitosis) [°C] | thermal stability score (HeLa Kyoto [3]; [5]) | thermal stability score (HeLa Kyoto [3]; cell cycle stage: mitosis) | solubility in G1/S (log2) (HeLa Kyoto [4])
MKLLARALRLCEFGRQASSRRLVAGQGCVGPRRGCCAPVQVVGPRADLPPCGACITGRIMRPDDANVAGNVHGGTILKMIEEAGAIISTRHCNSQNGERCVAALARVERTDFLSPMCIGEVAHVSAEITYTSKHSVEVQVNVMSENILTGAKKLTNKATLWYVPLSLKNVDKVLEVPPVVYSRQEQEEEGRKRYEAQKLERMETKWRNGDIVQPVLNPEPNTVSYSQSSLIHLVGPSDCTLHGFVHGGVTMKLMDEVAGIVAARHCKTNIVTASVDAINFHDKIRKGCVITISGRMTFTSNKSMEIEVLVDADPVVDSSQKRYRAASAFFTYVSLSQEGRSLPVPQLVPETEDEKKRFEEGKGRYLQMKAKRQGHAEPQP [ACOT7] | -0.0718 | 58.9 | 59.2 | -2.43 | -3.98 | 0.0352
MQSWSRVYCSLAKRGHFNRISHGLQGLSAVPLRTYADQPIDADVTVIGSGPGGYVAAIKAAQLGFKTVCIEKNETLGGTCLNVGCIPSKALLNNSHYYHMAHGKDFASRGIEMSEVRLNLDKMMEQKSTAVKALTGGIAHLFKQNKVVHVNGYGKITGKNQVTATKADGGTQVIDTKNILIATGSEVTPFPGITIDEDTIVSSTGALSLKKVPEKMVVIGAGVIGVELGSVWQRLGADVTAVEFLGHVGGVGIDMEISKNFQRILQKQGFKFKLNTKVTGATKKSDGKIDVSIEAASGGKAEVITCDVLLVCIGRRPFTKNLGLEELGIELDPRGRIPVNTRFQTKIPNIYAIGDVVAGPMLAHKAEDEGIICVEGMAGGAVHIDYNCVPSVIYTHPEVAWVGKSEEQLKEEGIEYKVGKFPFAANSRAKTNADTDGMVKILGQKSTDRVLGAHILGPGAGEMVNEAALALEYGASCEDIARVCHAHPTLSEAFREANLAASFGKSINF [DLD] | -0.0404 | 58.6 | 56.8 | -0.545 | -2.94 | -0.00434
MKVHMHTKFCLICLLTFIFHHCNHCHEEHDHGPEALHRQHRGMTELEPSKFSKQAAENEKKYYIEKLFERYGENGRLSFFGLEKLLTNLGLGERKVVEINHEDLGHDHVSHLDILAVQEGKHFHSHNHQHSHNHLNSENQTVTSVSTKRNHKCDPEKETVEVSVKSDDKHMHDHNHRLRHHHRLHHHLDHNNTHHFHNDSITPSERGEPSNEPSTETNKTQEQSDVKLPKGKRKKKGRKSNENSEVITPGFPPNHDQGEQYEHNRVHKPDRVHNPGHSHVHLPERNGHDPGRGHQDLDPDNEGELRHTRKREAPHVKNNAIISLRKDLNEDDHHHECLNVTQLLKYYGHGANSPISTDLFTYLCPALLYQIDSRLCIEHFDKLLVEDINKDKNLVPEDEANIGASAWICGIISITVISLLSLLGVILVPIINQGCFKFLLTFLVALAVGTMSGDALLHLLPHSQGGHDHSHQHAHGHGHSHGHESNKFLEEYDAVLKGLVALGGIYLLFIIEHCIRMFKHYKQQRGKQKWFMKQNTEESTIGRKLSDHKLNNTPDSDWLQLKPLAGTDDSVVSEDRLNETELTDLEGQQESPPKNYLCIEEEKIIDHSHSDGLHTIHEHDLHAAAHNHHGENKTVLRKHNHQWHHKHSHHSHGPCHSGSDLKETGIANIAWMVIMGDGIHNFSDGLAIGAAFSAGLTGGISTSIAVFCHELPHELGDFAVLLKAGMTVKQAIVYNLLSAMMAYIGMLIGTAVGQYANNITLWIFAVTAGMFLYVALVDMLPEMLHGDGDNEEHGFCPVGQFILQNLGLLFGFAIMLVIALYEDKIVFDIQF [SLC39A10] | -0.0208 | 59.3 | 59 | -2.73 | -0.381 | -0.0606
MEAEGSSAPARAGSGEGSDSAGGATLKAPKHLWRHEQHHQYPLRQPQFRLLHPHHHLPPPPPPSPQPQPQCPLQPPPPPPLPPPPPPPGAARGRYASSGATGRVRHRGYSDTERYLYCRAMDRTSYAVETGHRPGLKKSRMSWPSSFQGLRRFDVDNGTSAGRSPLDPMTSPGSGLILQANFVHSQRRESFLYRSDSDYDLSPKSMSRNSSIASDIHGDDLIVTPFAQVLASLRTVRNNFAALTNLQDRAPSKRSPMCNQPSINKATITEEAYQKLASETLEELDWCLDQLETLQTRHSVSEMASNKFKRMLNRELTHLSEMSRSGNQVSEFISNTFLDKQHEVEIPSPTQKEKEKKKRPMSQISGVKKLMHSSSLTNSSIPRFGVKTEQEDVLAKELEDVNKWGLHVFRIAELSGNRPLTVIMHTIFQERDLLKTFKIPVDTLITYLMTLEDHYHADVAYHNNIHAADVVQSTHVLLSTPALEAVFTDLEILAAIFASAIHDVDHPGVSNQFLINTNSELALMYNDSSVLENHHLAVGFKLLQEENCDIFQNLTKKQRQSLRKMVIDIVLATDMSKHMNLLADLKTMVETKKVTSSGVLLLDNYSDRIQVLQNMVHCADLSNPTKPLQLYRQWTDRIMEEFFRQGDRERERGMEISPMCDKHNASVEKSQVGFIDYIVHPLWETWADLVHPDAQDILDTLEDNREWYQSTIPQSPSPAPDDPEEGRQGQTEKFQFELTLEEDGESDTEKDSGSQVEEDTSCSDSKTLCTQDSESTEIPLDEQVEEEAVGEEEESQPEACVIDDRSPDT [PDE4D] | -0.23 | 53.2 | 51.1 | -2.8 | -4.75 | 0.0456
MWGDSRPANRTGPFRGSQEERFAPGWNRDYPPPPLKSHAQERHSGNFPGRDSLPFDFQGHSGPPFANVEEHSFSYGARDGPHGDYRGGEGPGHDFRGGDFSSSDFQSRDSSQLDFRGRDIHSGDFRDREGPPMDYRGGDGTSMDYRGREAPHMNYRDRDAHAVDFRGRDAPPSDFRGRGTYDLDFRGRDGSHADFRGRDLSDLDFRAREQSRSDFRNRDVSDLDFRDKDGTQVDFRGRGSGTTDLDFRDRDTPHSDFRGRHRSRTDQDFRGREMGSCMEFKDREMPPVDPNILDYIQPSTQDREHSGMNVNRREESTHDHTIERPAFGIQKGEFEHSETREGETQGVAFEHESPADFQNSQSPVQDQDKSQLSGREEQSSDAGLFKEEGGLDFLGRQDTDYRSMEYRDVDHRLPGSQMFGYGQSKSFPEGKTARDAQRDLQDQDYRTGPSEEKPSRLIRLSGVPEDATKEEILNAFRTPDGMPVKNLQLKEYNTGYDYGYVCVEFSLLEDAIGCMEANQGTLMIQDKEVTLEYVSSLDFWYCKRCKANIGGHRSSCSFCKNPREVTEAKQELITYPQPQKTSIPAPLEKQPNQPLRPADKEPEPRKREEGQESRLGHQKREAERYLPPSRREGPTFRRDRERESWSGETRQDGESKTIMLKRIYRSTPPEVIVEVLEPYVRLTTANVRIIKNRTGPMGHTYGFIDLDSHAEALRVVKILQNLDPPFSIDGKMVAVNLATGKRRNDSGDHSDHMHYYQGKKYFRDRRGGGRNSDWSSDTNRQGQQSSSDCYIYDSATGYYYDPLAGTYYDPNTQQEVYVPQDPGLPEEEEIKEKKPTSQGKSSSKKEMSKRDGKEKKDRGVTRFQENASEGKAPAEDVFKKPLPPTVKKEESPPPPKVVNPLIGLLGEYGGDSDYEEEEEEEQTPPPQPRTAQPQKREEQTKKENEEDKLTDWNKLACLLCRRQFPNKEVLIKHQQLSDLHKQNLEIHRKIKQSEQELAYLERREREGKFKGRGNDRREKLQSFDSPERKRIKYSRETDSDRKLVDKEDIDTSSKGGCVQQATGWRKGTGLGYGHPGLASSEEAEGRMRGPSVGASGRTSKRQSNETYRDAVRRVMFARYKELD [RBM6] | 0.361 | 48.2 | 50 | 1.19 | 1.84 | -0.757
MWFFARDPVRDFPFELIPEPPEGGLPGPWALHRGRKKATGSPVSIFVYDVKPGAEEQTQVAKAAFKRFKTLRHPNILAYIDGLETEKCLHVVTEAVTPLGIYLKARVEAGGLKELEISWGLHQIVKALSFLVNDCSLIHNNVCMAAVFVDRAGEWKLGGLDYMYSAQGNGGGPPRKGIPELEQYDPPELADSSGRVVREKWSADMWRLGCLIWEVFNGPLPRAAALRNPGKIPKTLVPHYCELVGANPKVRPNPARFLQNCRAPGGFMSNRFVETNLFLEEIQIKEPAEKQKFFQELSKSLDAFPEDFCRHKVLPQLLTAFEFGNAGAVVLTPLFKVGKFLSAEEYQQKIIPVVVKMFSSTDRAMRIRLLQQMEQFIQYLDEPTVNTQIFPHVVHGFLDTNPAIREQTVKSMLLLAPKLNEANLNVELMKHFARLQAKDEQGPIRCNTTVCLGKIGSYLSASTRHRVLTSAFSRATRDPFAPSRVAGVLGFAATHNLYSMNDCAQKILPVLCGLTVDPEKSVRDQAFKAIRSFLSKLESVSEDPTQLEEVEKDVHAASSPGMGGAAASWAGWAVTGVSSLTSKLIRSHPTTAPTETNIPQRPTPEGVPAPAPTPVPATPTTSGHWETQEEDKDTAEDSSTADRWDDEDWGSLEQEAESVLAQQDDWSTGGQVSRASQVSNSDHKSSKSPESDWSSWEAEGSWEQGWQEPSSQEPPPDGTRLASEYNWGGPESSDKGDPFATLSARPSTQPRPDSWGEDNWEGLETDSRQVKAELARKKREERRREMEAKRAERKVAKGPMKLGARKLD [SCYL1] | -0.184 | 50.9 | 50.3 | 0.0922 | 0.113 | -0.162
NAV1 | 0.0198 | 47.2 | 49 | 1.35 | 2.83 | -0.141
MSGNGNAAATAEENSPKMRVIRVGTRKSQLARIQTDSVVATLKASYPGLQFEIIAMSTTGDKILDTALSKIGEKSLFTKELEHALEKNEVDLVVHSLKDLPTVLPPGFTIGAICKRENPHDAVVFHPKFVGKTLETLPEKSVVGTSSLRRAAQLQRKFPHLEFRSIRGNLNTRLRKLDEQQEFSAIILATAGLQRMGWHNRVGQILHPEECMYAVGQGALGVEVRAKDQDILDLVGVLHDPETLLRCIAERAFLRHLEGGCSVPVAVHTAMKDGQLYLTGGVWSLDGSDSIQETMQATIHVPAQHEDGPEDDPQLVGITARNIPRGPQLAAQNLGISLANLLLSKGAKNILDVARQLNDAH [HMBS] | -0.0671 | 57.6 | 57.3 | -1.68 | -1.79 | 0.328
MTILTYPFKNLPTASKWALRFSIRPLSCSSQLRAAPAVQTKTKKTLAKPNIRNVVVVDGVRTPFLLSGTSYKDLMPHDLARAALTGLLHRTSVPKEVVDYIIFGTVIQEVKTSNVAREAALGAGFSDKTPAHTVTMACISANQAMTTGVGLIASGQCDVIVAGGVELMSDVPIRHSRKMRKLMLDLNKAKSMGQRLSLISKFRFNFLAPELPAVSEFSTSETMGHSADRLAAAFAVSRLEQDEYALRSHSLAKKAQDEGLLSDVVPFKVPGKDTVTKDNGIRPSSLEQMAKLKPAFIKPYGTVTAANSSFLTDGASAMLIMAEEKALAMGYKPKAYLRDFMYVSQDPKDQLLLGPTYATPKVLEKAGLTMNDIDAFEFHEAFSGQILANFKAMDSDWFAENYMGRKTKVGLPPLEKFNNWGGSLSLGHPFGATGCRLVMAAANRLRKEGGQYGLVAACAAGGQGHAMIVEAYPK [HADHB] | -0.0395 | 50.7 | 50.7 | -0.727 | -0.0884 | 0.274
MATAMDWLPWSLLLFSLMCETSAFYVPGVAPINFHQNDPVEIKAVKLTSSRTQLPYEYYSLPFCQPSKITYKAENLGEVLRGDRIVNTPFQVLMNSEKKCEVLCSQSNKPVTLTVEQSRLVAERITEDYYVHLIADNLPVATRLELYSNRDSDDKKKEKDVQFEHGYRLGFTDVNKIYLHNHLSFILYYHREDMEEDQEHTYRVVRFEVIPQSIRLEDLKADEKSSCTLPEGTNSSPQEIDPTKENQLYFTYSVHWEESDIKWASRWDTYLTMSDVQIHWFSIINSVVVVFFLSGILSMIIIRTLRKDIANYNKEDDIEDTMEESGWKLVHGDVFRPPQYPMILSSLLGSGIQLFCMILIVIFVAMLGMLSPSSRGALMTTACFLFMFMGVFGGFSAGRLYRTLKGHRWKKGAFCTATLYPGVVFGICFVLNCFIWGKHSSGAVPFPTMVALLCMWFGISLPLVYLGYYFGFRKQPYDNPVRTNQIPRQIPEQRWYMNRFVGILMAGILPFGAMFIELFFIFSAIWENQFYYLFGFLFLVFIILVVSCSQISIVMVYFQLCAEDYRWWWRNFLVSGGSAFYVLVYAIFYFVNKLDIVEFIPSLLYFGYTALMVLSFWLLTGTIGFYAAYMFVRKIYAAVKID [TM9SF4] | -0.228 | 52.5 | 53.3 | 1.93 | 4.73 | -0.198
